39 molecules from patent US20230125550A1 (ARCELLX, published 2023) can be followed below.

Sequences and labels used below:
T1: recombinant human CD123-Fc (human, UniProt P26951 19-305)
T1 construct: not shown: Fc part of CD123-Fc
T1 sequence: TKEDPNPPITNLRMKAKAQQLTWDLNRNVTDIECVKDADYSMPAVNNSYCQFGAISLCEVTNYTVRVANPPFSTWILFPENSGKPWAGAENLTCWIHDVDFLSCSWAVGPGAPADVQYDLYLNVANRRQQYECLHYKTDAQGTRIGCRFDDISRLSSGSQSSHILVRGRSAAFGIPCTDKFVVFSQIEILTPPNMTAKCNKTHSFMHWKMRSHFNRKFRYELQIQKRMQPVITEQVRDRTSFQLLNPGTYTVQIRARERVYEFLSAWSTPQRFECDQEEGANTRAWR

B1: SEQ ID NO 677 (designed binder)
chain: MGSWGEFWARLEAIWIRLDALGGSEAELAAFEKEIAAFESELQAYKGKGNPEVEWLREEAADIRRSLQAYRHN
B2: SEQ ID NO 730 (designed binder)
chain: MGSWWEFEDRLMAIYDRLYALGGSEAELAAFEKEIAAFESELQAYKGKGNPEVEYLRAEAALIRETLQAYRHN
B3: SEQ ID NO 731 (designed binder)
chain: MGSWFEFEDRLYAIEDRLYALGGSEAELAAFEKEIAAFESELQAYKGKGNPEVEYLRWGAATIRDELQAYRHN
B4: SEQ ID NO 697 (designed binder)
chain: MGSWVEFWHRLDAIKARLNALGGSEAELAAFEKEIAAFESELQAYKGKGNPEVEDLRWYAADFRLILQAYRHN
B5: SEQ ID NO 691 (designed binder)
chain: MGSWYEFEDRLDAIQWRLWALGGSEAELAAFEKEIAAFESELQAYKGKGNPEVEFLRESAANIRQHLQAYRHN
B6: SEQ ID NO 692 (designed binder)
chain: MGSWSEFEYRLFAIENRLDALGGSEAELAAFEKEIAAFESELQAYKGKGNPEVEFLREEAAMIRQLLQAYRHN
B7: SEQ ID NO 700 (designed binder)
chain: MGSWNEFYDRLSAIYFRLQALGGSEAELAAFEKEIAAFESELQAYKGKGNPEVEHLRWYAADIRMILQAYRHN
B8: SEQ ID NO 701 (designed binder)
chain: MGSWNEFYDRLSAIYFRLQALGGFEAELAAFEKEIAAFESELQAYKGKGNPEVEHLRWYAADIRMILQAYRHN
B9: SEQ ID NO 702 (designed binder)
chain: MGSWEEFYDRLGAIFARLHALGGSEAELAAFEKEIAAFESELQAYKGKGNPEVEDLRWYAADIRMILQAYRHN
B10: SEQ ID NO 703 (designed binder)
chain: MGSWVEFYDRLHAIYFRLLALGGSEAELAAFEKEIAAFESELQAYKGKGNPEVEDLRWYAADIRLVLQAYRHN
B11: SEQ ID NO 704 (designed binder)
chain: MGSWKEFDNRLYAIEDRLRALGGSEAELAAFEKEIAAFESELQAYKGKGNPEVEHLRWYAADIRMILQAYRHN
B12: SEQ ID NO 698 (designed binder)
chain: MGSWYEFYNRLSAIYARLQALGGSEAELAAFEKEIAAFESELQAYKGKGNPEVEDLRWYAADIRYMLQAYRHN
B13: SEQ ID NO 699 (designed binder)
chain: MGSWYEFYDRLSAIYARLQALGGSEAELAAFEKEIAAFESELQAYKGKGNPEVEDLRWYAADIRYMLQAYRHN
B14: SEQ ID NO 736 (designed binder)
chain: MGSWFEFVDRLEAIEMRLFALGGSEAELAAFEKEIAAFESELQAYKGKGNPEVELLRWRAAMIRYDLQAYRHN
B15: SEQ ID NO 714 (designed binder)
chain: MGSWVEFESRLAAIEHRLWALGGSEAELAAFEKEIAAFESELQAYKGKGNPEVEELREYAAEIRDWLQAYRHN
B16: SEQ ID NO 725 (designed binder)
chain: MGSWYEFEHRLDAIYDRLWALGGSEAELAAFEKEIAAFESELQAYKGKGNPEVEWLREEAAWIRLWLQAYRHN
B17: SEQ ID NO 735 (designed binder)
chain: MGSWVEFVDRLEAIEDRLFALGGSEAELAAFEKEIAAFESELQAYKGKGNPEVEFLRDQAAYIRFMLQAYRHN
B18: SEQ ID NO 717 (designed binder)
chain: MGSWYEFEWRLMAIEDRLWALGGSEAELAAFEKEIAAFESELQAYKGKGNPEVEYLRHEAAEIRDVLQAYRHN
B19: SEQ ID NO 720 (designed binder)
chain: MGSWYEFWDRLEAIEERLWALGGSEAELAAFEKEIAAFESELQAYKGKGNPEVEYLRLEAADIRRILQAYRHN
B20: SEQ ID NO 724 (designed binder)
chain: MGSWYEFENRLGAIGDRLWALGGSEAELAAFEKEIAAFESELQAYKGKGNPEVEWLRDEAAYIRAVLQAYRHN
B21: SEQ ID NO 722 (designed binder)
chain: MGSWYEFENRLEAIEERLWALGGSEAELAAFEKEIAAFESELQAYKGKGNPEVEMLREEAAFIRDWLQAYRHN
B22: SEQ ID NO 718 (designed binder)
chain: MGSWYEFYNRLDAIEDRLWALGGSEAELAAFEKEIAAFESELQAYKGKGNPEVEYLRQEAADIRGQLQAYRHN
B23: SEQ ID NO 739 (designed binder)
chain: MGSWYEFYQRLEAIEDRLFALGGSEAELAAFEKEIAAFESELQAYKGKGNPEVEWLRDEAAEIRVVLQAYRHN
B24: SEQ ID NO 726 (designed binder)
chain: MGSWYEFEWRLDAIYDRLGALGGSEAELAAFEKEIAAFESELQAYKGKGNPEVEWLREDAAEIRALLQAYRHN
B25: SEQ ID NO 737 (designed binder)
chain: MGSWWEFEMRLEAIEDRLFALGGSEAELAAFEKEIAAFESELQAYKGKGNPEVESLRWEAAFIRDILQAYRHN
B26: SEQ ID NO 728 (designed binder)
chain: MGSWYEFEERLEAIEDRLWALGGSEAELAAFEKEIAAFESELQAYKGKGNPEVEWLREQAAFIRTMLQAYRHN
B27: SEQ ID NO 719 (designed binder)
chain: MGSWWEFHDRLEAIEDRLWALGGSEAELAAFEKEIAAFESELQAYKGKGNPEVEYLRIEAADIRRQLQAYRHN
B28: SEQ ID NO 723 (designed binder)
chain: MGSWYEFEYRLEAIEDRLWALGGSEAELAAFEKEIAAFESELQAYKGKGNPEVEYLREEAAWIRVWLQAYRHN
B29: SEQ ID NO 715 (designed binder)
chain: MGSWWEFEHRLFAIEDRLWALGGSEAELAAFEKEIAAFESELQAYKGKGNPEVEFLRDYAAEIRDYLQAYRHN
B30: SEQ ID NO 740 (designed binder)
chain: MGSWIEFEDRLEAIEDRLFALGGSEAELAAFEKEIAAFESELQAYKGKGNPEVEWLRQEAAEIRLMLQAYRHN
B31: SEQ ID NO 729 (designed binder)
chain: MGSWFEFEWRLEAIFDRLYALGGSEAELAAFEKEIAAFESELQAYKGKGNPEVEVLRAEAAEIRLRLQAYRHN
B32: SEQ ID NO 721 (designed binder)
chain: MGSWYEFEERLWAIEERLYALGGSEAELAAFEKEIAAFESELQAYKGKGNPEVEYLRYEAAWIRDFLQAYRHN
B33: SEQ ID NO 716 (designed binder)
chain: MGSWYEFDSRLMAIEDRLWALGGSEAELAAFEKEIAAFESELQAYKGKGNPEVEYLRQEAAEIRMILQAYRHN
B34: SEQ ID NO 738 (designed binder)
chain: MGSWFEFEIRLEAIEDRLFALGGSEAELAAFEKEIAAFESELQAYKGKGNPEVEFLRDEAAEIRQVLQAYRHN
B35: SEQ ID NO 727 (designed binder)
chain: MGSWVEFENRLEAIENRLWALGGSEAELAAFEKEIAAFESELQAYKGKGNPEVEWLREDAAQIRMMLQAYRHN
B36: SEQ ID NO 732 (designed binder)
chain: MGSWIEFWDRLEAIEDRLWALGGSEAELAAFEKEIAAFESELQAYKGKGNPEVEELRDEAAWIRDSLQAYRHN
B37: SEQ ID NO 733 (designed binder)
chain: MGSWFEFWDRLDAIEDRLYALGGSEAELAAFEKEIAAFESELQAYKGKGNPEVEELRDEAAWIRGTLQAYRHN
B38: SEQ ID NO 734 (designed binder)
chain: MGSWEEFTDRLWAIEDRLYALGGSEAELAAFEKEIAAFESELQAYKGKGNPEVEWLRDEAAFIRKSLQAYRHN
B39: SEQ ID NO 911 (designed binder)
chain: MGSWHEFRWRLFAIWQRLHALGGSEAELAAFEKEIAAFESELQAYKGKGNPEVEWLRLDAALIRVMLQAYRHN

For the first experiment, the target named is T1, recombinant human CD123-Fc. As to the kind of experiment: phage ELISA, A450 target/A450 IgG1-Fc. The method in brief: (§1)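 Phage were rescued in 96-well format with VCSM13 helper phage from individual phagemid colonies picked from panning output. Plates were coated with 1.3 microg/ml goat anti-human IgG1-Fc antibody, then 5 nM recombinant human target or IgG1-Fc, then 50 microl phage diluted 5× in ELISA blocking buffer. Binding was detected with HRP-conjugated anti-M13 antibody at 450 nm. The ELISA ratio is target over IgG1-Fc absorbance, averaged across all screened wells holding that clone.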
(An ELISA detects its analyte on a solid surface through an enzyme-linked reagent.)
B1: the ELISA_avg came to 15 ratio.
Regarding B2, the ELISA_avg amounted to 15.3 ratio.
As to B3, the ELISA_avg was found to be 4.7 ratio.
For the molecule B4, the ELISA_avg was found to be 3.5 ratio.
With B5, the ELISA_avg is 6.3 ratio.
The same measure, in the same setting: for B6 the value was 3.2 ratio; for B7, 10.6 ratio.
Turning to B8, the ELISA_avg is 9 ratio.
B9: the ELISA_avg was 3.9 ratio.
Take B10: the ELISA_avg came out at 4.8 ratio.
Consider B11, for which the ELISA_avg was 3.9 ratio.
Same read-out and setting: the figure for B12 is 10.6 ratio.
B13: the ELISA_avg was found to be 5.3 ratio.
As to B14, the ELISA_avg came to 7.1 ratio.
On to B15, for which the ELISA_avg turned out to be 3.7 ratio.
On to B16, for which the ELISA_avg was 6.3 ratio.
Same read-out and setting: for B17 the value was 4.9 ratio.
As to B18, the ELISA_avg is 3.4 ratio.
Take B19: the ELISA_avg was 4.6 ratio.
As for B20, the ELISA_avg is 4.8 ratio.
Regarding B21, the ELISA_avg was found to be 6.1 ratio.
For the molecule B22, the ELISA_avg was 11.3 ratio.
For the molecule B23, the ELISA_avg worked out at 3 ratio.
On to B24, for which the ELISA_avg was 6 ratio.
On to B25, for which the ELISA_avg came to 4 ratio.
As for B26, the ELISA_avg came out at 6 ratio.
B27: the ELISA_avg amounted to 6.4 ratio.
For B28, the ELISA_avg stood at 6.2 ratio.
Same read-out and setting: for B29 the value was 7.6 ratio; for B30, 21.8 ratio; for B31, 6.9 ratio.
Take B32: the ELISA_avg stood at 5.4 ratio.
With B33, the ELISA_avg was determined as 3.2 ratio.
As to B34, the ELISA_avg is 3 ratio.
On to B35, for which the ELISA_avg was determined as 6.2 ratio.
The same measure, in the same setting: for B36 the value was 4.5 ratio.
Turning to B37, the ELISA_avg came to 4.9 ratio.
For the molecule B38, the ELISA_avg was determined as 8.9 ratio.

The target of another experiment is HER2 (Homo sapiens (Human), UniProt P04626 23-652). As to the kind of experiment: phage ELISA, A450 target/A450 IgG1-Fc. The essentials: as §1
In turn, B39 showed an ELISA_avg of 10 ratio.
